Reference: the supplement of paper PMC10219994
± gives the standard deviation of the averaged measurements.

B1: library; a variant is named by its letters at N, in order (parent)
chain: GAGACCGCAACTGAAAAGTTGTGGNNNNNATAGTGAGTCGCTGCCTGCAAAGACACAACT

Variants of: B1
Test: ligation selection enrichment (abundance after / before one-round selection) (fold); higher = more template-directed ligation activity
Conditions: with T7Psub CACGGAUGCUAAUACGACUCACUAUA; MgCl2 25 mM; 42 °C; 4 h; pH 8.5
How it was run: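 RNA ligase library with five randomized core positions (0.75 μM, T7-transcribed) was reacted with RNA substrate (6 μM) in 50 mM EPPS pH 8.5, 25 mM MgCl2 at 42 °C for 4 h, in two independent experiments. Ligated products were PAGE-purified, reverse transcribed, barcoded by PCR and MiSeq-sequenced. Reads with quality score ≥30 at all randomized positions were counted. Enrichment was abundance after ligation divided by abundance before ligation.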

Variant | ligation selection enrichment
GAGACCGCAACTGAAAAGTTGTGGTCGCAATAGTGAGTCGCTGCCTGCAAAGACACAACT [TCGCA] | 0.269 ± 0.054
GAGACCGCAACTGAAAAGTTGTGGACGCAATAGTGAGTCGCTGCCTGCAAAGACACAACT [ACGCA] | 0.248 ± 0.016
GAGACCGCAACTGAAAAGTTGTGGCCGCAATAGTGAGTCGCTGCCTGCAAAGACACAACT [CCGCA] | 0.206 ± 0.0029
GAGACCGCAACTGAAAAGTTGTGGGCGCCATAGTGAGTCGCTGCCTGCAAAGACACAACT [GCGCC] | 0.191 ± 0.017
GAGACCGCAACTGAAAAGTTGTGGTCGCCATAGTGAGTCGCTGCCTGCAAAGACACAACT [TCGCC] | 0.155 ± 0.028
GAGACCGCAACTGAAAAGTTGTGGACGCCATAGTGAGTCGCTGCCTGCAAAGACACAACT [ACGCC] | 0.153 ± 0.035
GAGACCGCAACTGAAAAGTTGTGGCCGCCATAGTGAGTCGCTGCCTGCAAAGACACAACT [CCGCC] | 0.148 ± 0.0024
GAGACCGCAACTGAAAAGTTGTGGACGCGATAGTGAGTCGCTGCCTGCAAAGACACAACT [ACGCG] | 0.622 ± 0.021
GAGACCGCAACTGAAAAGTTGTGGGCGCGATAGTGAGTCGCTGCCTGCAAAGACACAACT [GCGCG] | 0.558 ± 0.0074
GAGACCGCAACTGAAAAGTTGTGGCCGCGATAGTGAGTCGCTGCCTGCAAAGACACAACT [CCGCG] | 0.499 ± 0.059
GAGACCGCAACTGAAAAGTTGTGGTCGCGATAGTGAGTCGCTGCCTGCAAAGACACAACT [TCGCG] | 0.485 ± 0.036
GAGACCGCAACTGAAAAGTTGTGGGCGCTATAGTGAGTCGCTGCCTGCAAAGACACAACT [GCGCT] | 0.519 ± 0.19
GAGACCGCAACTGAAAAGTTGTGGACGCTATAGTGAGTCGCTGCCTGCAAAGACACAACT [ACGCT] | 0.449 ± 0.15
GAGACCGCAACTGAAAAGTTGTGGCCGCTATAGTGAGTCGCTGCCTGCAAAGACACAACT [CCGCT] | 0.4 ± 0.15
GAGACCGCAACTGAAAAGTTGTGGTCGCTATAGTGAGTCGCTGCCTGCAAAGACACAACT [TCGCT] | 0.299 ± 0.075
GAGACCGCAACTGAAAAGTTGTGGGCGGAATAGTGAGTCGCTGCCTGCAAAGACACAACT [GCGGA] | 0.334 ± 0.035
GAGACCGCAACTGAAAAGTTGTGGCCGGAATAGTGAGTCGCTGCCTGCAAAGACACAACT [CCGGA] | 0.278 ± 0.019
GAGACCGCAACTGAAAAGTTGTGGTCGGAATAGTGAGTCGCTGCCTGCAAAGACACAACT [TCGGA] | 0.233 ± 0.022
GAGACCGCAACTGAAAAGTTGTGGACGGAATAGTGAGTCGCTGCCTGCAAAGACACAACT [ACGGA] | 0.204 ± 0.033
GAGACCGCAACTGAAAAGTTGTGGTCGGCATAGTGAGTCGCTGCCTGCAAAGACACAACT [TCGGC] | 0.232 ± 0.01
GAGACCGCAACTGAAAAGTTGTGGCCGGCATAGTGAGTCGCTGCCTGCAAAGACACAACT [CCGGC] | 0.1797 ± 0.00074
GAGACCGCAACTGAAAAGTTGTGGACGGCATAGTGAGTCGCTGCCTGCAAAGACACAACT [ACGGC] | 0.122 ± 0.01

Variant | ligation selection enrichment
GAGACCGCAACTGAAAAGTTGTGGGCGGCATAGTGAGTCGCTGCCTGCAAAGACACAACT [GCGGC] | 0.103 ± 0.017
GAGACCGCAACTGAAAAGTTGTGGTCGGGATAGTGAGTCGCTGCCTGCAAAGACACAACT [TCGGG] | 0.41 ± 0.01
GAGACCGCAACTGAAAAGTTGTGGCCGGGATAGTGAGTCGCTGCCTGCAAAGACACAACT [CCGGG] | 0.244 ± 0.014
GAGACCGCAACTGAAAAGTTGTGGGCGGGATAGTGAGTCGCTGCCTGCAAAGACACAACT [GCGGG] | 0.201 ± 0.0056
GAGACCGCAACTGAAAAGTTGTGGACGGGATAGTGAGTCGCTGCCTGCAAAGACACAACT [ACGGG] | 0.165 ± 0.012
GAGACCGCAACTGAAAAGTTGTGGGCGGTATAGTGAGTCGCTGCCTGCAAAGACACAACT [GCGGT] | 0.186 ± 0.11
GAGACCGCAACTGAAAAGTTGTGGACGGTATAGTGAGTCGCTGCCTGCAAAGACACAACT [ACGGT] | 0.169 ± 0.025
GAGACCGCAACTGAAAAGTTGTGGCCGGTATAGTGAGTCGCTGCCTGCAAAGACACAACT [CCGGT] | 0.152 ± 0.021
GAGACCGCAACTGAAAAGTTGTGGTCGGTATAGTGAGTCGCTGCCTGCAAAGACACAACT [TCGGT] | 0.115 ± 0.0078
GAGACCGCAACTGAAAAGTTGTGGGCGTAATAGTGAGTCGCTGCCTGCAAAGACACAACT [GCGTA] | 0.332 ± 0.038
GAGACCGCAACTGAAAAGTTGTGGTCGTAATAGTGAGTCGCTGCCTGCAAAGACACAACT [TCGTA] | 0.31 ± 0.074
GAGACCGCAACTGAAAAGTTGTGGACGTAATAGTGAGTCGCTGCCTGCAAAGACACAACT [ACGTA] | 0.221 ± 0.0031
GAGACCGCAACTGAAAAGTTGTGGCCGTAATAGTGAGTCGCTGCCTGCAAAGACACAACT [CCGTA] | 0.213 ± 0.013
GAGACCGCAACTGAAAAGTTGTGGGCGTCATAGTGAGTCGCTGCCTGCAAAGACACAACT [GCGTC] | 0.231 ± 0.09
GAGACCGCAACTGAAAAGTTGTGGTCGTCATAGTGAGTCGCTGCCTGCAAAGACACAACT [TCGTC] | 0.202 ± 0.02
GAGACCGCAACTGAAAAGTTGTGGCCGTCATAGTGAGTCGCTGCCTGCAAAGACACAACT [CCGTC] | 0.178 ± 0.022
GAGACCGCAACTGAAAAGTTGTGGACGTCATAGTGAGTCGCTGCCTGCAAAGACACAACT [ACGTC] | 0.172 ± 0.045
GAGACCGCAACTGAAAAGTTGTGGGCGTGATAGTGAGTCGCTGCCTGCAAAGACACAACT [GCGTG] | 0.272 ± 0.018
GAGACCGCAACTGAAAAGTTGTGGTCGTGATAGTGAGTCGCTGCCTGCAAAGACACAACT [TCGTG] | 0.173 ± 0.047
GAGACCGCAACTGAAAAGTTGTGGACGTGATAGTGAGTCGCTGCCTGCAAAGACACAACT [ACGTG] | 0.17 ± 0.0072
GAGACCGCAACTGAAAAGTTGTGGCCGTGATAGTGAGTCGCTGCCTGCAAAGACACAACT [CCGTG] | 0.111 ± 0.0037
GAGACCGCAACTGAAAAGTTGTGGGCGTTATAGTGAGTCGCTGCCTGCAAAGACACAACT [GCGTT] | 0.288 ± 0.12
